Reference: article PMC10786891, “Massively parallel profiling of RNA-targeting CRISPR-Cas13d”

B1: target 1 insU 3' of 12,insG 3' of 2 (mixed)
RNA 1: CACCCGUGCAAAAAUGCAGGGGUCUAAAACUGAGCGGAUAACCUCUCUAUGG
RNA 2: GGGAAUGGAUCCACAUCUACGAAUUCGUACCAUAGAGAGGUUUAUCCGCUCGACCGAGAUCGGAAGAGCACACGU
B2: target 1 insC 3' of 13,insU 3' of 13 (mixed)
RNA 1: CACCCGUGCAAAAAUGCAGGGGUCUAAAACUGAGCGGAUAACCUCUCUAUGG
RNA 2: GGGAAUGGAUCCACAUCUACGAAUUCGUACCAUAGAGAGCUGUUAUCCGCUCACCGAGAUCGGAAGAGCACACGU
B3: target 1 C2G,G17U (mixed)
RNA 1: CACCCGUGCAAAAAUGCAGGGGUCUAAAACUGAGCGGAUAACCUCUCUAUGG
RNA 2: GGGAAUGGAUCCACAUCUACGAAUUCGUACCAUAUAGAGGUUAUCCGCUGACCGAGAUCGGAAGAGCACACGU
B4: target 1 insC 3' of 15,insG 3' of 11 (mixed)
RNA 1: CACCCGUGCAAAAAUGCAGGGGUCUAAAACUGAGCGGAUAACCUCUCUAUGG
RNA 2: GGGAAUGGAUCCACAUCUACGAAUUCGUACCAUAGAGCAGGUGUAUCCGCUCACCGAGAUCGGAAGAGCACACGU
B5: target 1 insA 3' of 10,insG 3' of 4 (mixed)
RNA 1: CACCCGUGCAAAAAUGCAGGGGUCUAAAACUGAGCGGAUAACCUCUCUAUGG
RNA 2: GGGAAUGGAUCCACAUCUACGAAUUCGUACCAUAGAGAGGUUAAUCCGCGUCACCGAGAUCGGAAGAGCACACGU
B6: target 1 insG 3' of 16,insU 3' of 16 (mixed)
RNA 1: CACCCGUGCAAAAAUGCAGGGGUCUAAAACUGAGCGGAUAACCUCUCUAUGG
RNA 2: GGGAAUGGAUCCACAUCUACGAAUUCGUACCAUAGAGUGAGGUUAUCCGCUCACCGAGAUCGGAAGAGCACACGU
B7: target 1 insA 3' of 12,insG 3' of 4 (mixed)
RNA 1: CACCCGUGCAAAAAUGCAGGGGUCUAAAACUGAGCGGAUAACCUCUCUAUGG
RNA 2: GGGAAUGGAUCCACAUCUACGAAUUCGUACCAUAGAGAGGAUUAUCCGCGUCACCGAGAUCGGAAGAGCACACGU
B8: target 1 C2U,G15A (mixed)
RNA 1: CACCCGUGCAAAAAUGCAGGGGUCUAAAACUGAGCGGAUAACCUCUCUAUGG
RNA 2: GGGAAUGGAUCCACAUCUACGAAUUCGUACCAUAGAAAGGUUAUCCGCUUACCGAGAUCGGAAGAGCACACGU
B9: target 1 insU 3' of 14,insU 3' of 12 (mixed)
RNA 1: CACCCGUGCAAAAAUGCAGGGGUCUAAAACUGAGCGGAUAACCUCUCUAUGG
RNA 2: GGGAAUGGAUCCACAUCUACGAAUUCGUACCAUAGAGAUGGUUUAUCCGCUCACCGAGAUCGGAAGAGCACACGU
B10: target 1 insC 3' of 11,insU 3' of 9 (mixed)
RNA 1: CACCCGUGCAAAAAUGCAGGGGUCUAAAACUGAGCGGAUAACCUCUCUAUGG
RNA 2: GGGAAUGGAUCCACAUCUACGAAUUCGUACCAUAGAGAGGUCUAUUCCGCUCACCGAGAUCGGAAGAGCACACGU
B11: target 1 insC 3' of 18,insG 3' of 3 (mixed)
RNA 1: CACCCGUGCAAAAAUGCAGGGGUCUAAAACUGAGCGGAUAACCUCUCUAUGG
RNA 2: GGGAAUGGAUCCACAUCUACGAAUUCGUACCAUACGAGAGGUUAUCCGCUGCACCGAGAUCGGAAGAGCACACGU
B12: target 1 insG 3' of 14,insA 3' of 4 (mixed)
RNA 1: CACCCGUGCAAAAAUGCAGGGGUCUAAAACUGAGCGGAUAACCUCUCUAUGG
RNA 2: GGGAAUGGAUCCACAUCUACGAAUUCGUACCAUAGAGAGGGUUAUCCGCAUCACCGAGAUCGGAAGAGCACACGU
B13: target 1 insG 3' of 20,insU 3' of 18 (mixed)
RNA 1: CACCCGUGCAAAAAUGCAGGGGUCUAAAACUGAGCGGAUAACCUCUCUAUGG
RNA 2: GGGAAUGGAUCCACAUCUACGAAUUCGUACCAGUAUGAGAGGUUAUCCGCUCACCGAGAUCGGAAGAGCACACGU
B14: target 1 insC 3' of 14,insG 3' of 6 (mixed)
RNA 1: CACCCGUGCAAAAAUGCAGGGGUCUAAAACUGAGCGGAUAACCUCUCUAUGG
RNA 2: GGGAAUGGAUCCACAUCUACGAAUUCGUACCAUAGAGACGGUUAUCCGGCUCACCGAGAUCGGAAGAGCACACGU
B15: target 1 U8C,G15C (mixed)
RNA 1: CACCCGUGCAAAAAUGCAGGGGUCUAAAACUGAGCGGAUAACCUCUCUAUGG
RNA 2: GGGAAUGGAUCCACAUCUACGAAUUCGUACCAUAGACAGGUUACCCGCUCACCGAGAUCGGAAGAGCACACGU
B16: target 1 insG 3' of 7,insC 3' of 3 (mixed)
RNA 1: CACCCGUGCAAAAAUGCAGGGGUCUAAAACUGAGCGGAUAACCUCUCUAUGG
RNA 2: GGGAAUGGAUCCACAUCUACGAAUUCGUACCAUAGAGAGGUUAUCGCGCUCCACCGAGAUCGGAAGAGCACACGU
B17: target 1 insG 3' of 10,insG 3' of 9 (mixed)
RNA 1: CACCCGUGCAAAAAUGCAGGGGUCUAAAACUGAGCGGAUAACCUCUCUAUGG
RNA 2: GGGAAUGGAUCCACAUCUACGAAUUCGUACCAUAGAGAGGUUGAGUCCGCUCACCGAGAUCGGAAGAGCACACGU
B18: target 1 insA 3' of 8,insU 3' of 6 (mixed)
RNA 1: CACCCGUGCAAAAAUGCAGGGGUCUAAAACUGAGCGGAUAACCUCUCUAUGG
RNA 2: GGGAAUGGAUCCACAUCUACGAAUUCGUACCAUAGAGAGGUUAUACCUGCUCACCGAGAUCGGAAGAGCACACGU
B19: target 1 insC 3' of 22,insC 3' of 13 (mixed)
RNA 1: CACCCGUGCAAAAAUGCAGGGGUCUAAAACUGAGCGGAUAACCUCUCUAUGG
RNA 2: GGGAAUGGAUCCACAUCUACGAAUUCGUACCCAUAGAGAGCGUUAUCCGCUCACCGAGAUCGGAAGAGCACACGU
B20: target 1 insU 3' of 13,insG 3' of 3 (mixed)
RNA 1: CACCCGUGCAAAAAUGCAGGGGUCUAAAACUGAGCGGAUAACCUCUCUAUGG
RNA 2: GGGAAUGGAUCCACAUCUACGAAUUCGUACCAUAGAGAGUGUUAUCCGCUGCACCGAGAUCGGAAGAGCACACGU
B21: target 1 insA 3' of 12,insG 3' of 6 (mixed)
RNA 1: CACCCGUGCAAAAAUGCAGGGGUCUAAAACUGAGCGGAUAACCUCUCUAUGG
RNA 2: GGGAAUGGAUCCACAUCUACGAAUUCGUACCAUAGAGAGGAUUAUCCGGCUCACCGAGAUCGGAAGAGCACACGU
B22: target 1 U3A,G15C (mixed)
RNA 1: CACCCGUGCAAAAAUGCAGGGGUCUAAAACUGAGCGGAUAACCUCUCUAUGG
RNA 2: GGGAAUGGAUCCACAUCUACGAAUUCGUACCAUAGACAGGUUAUCCGCACACCGAGAUCGGAAGAGCACACGU
B23: target 1 insA 3' of 2,insC 3' of 1 (mixed)
RNA 1: CACCCGUGCAAAAAUGCAGGGGUCUAAAACUGAGCGGAUAACCUCUCUAUGG
RNA 2: GGGAAUGGAUCCACAUCUACGAAUUCGUACCAUAGAGAGGUUAUCCGCUCAACCCGAGAUCGGAAGAGCACACGU
B24: target 1 insA 3' of 2,insA 3' of 2 (mixed)
RNA 1: CACCCGUGCAAAAAUGCAGGGGUCUAAAACUGAGCGGAUAACCUCUCUAUGG
RNA 2: GGGAAUGGAUCCACAUCUACGAAUUCGUACCAUAGAGAGGUUAUCCGCUCAAACCGAGAUCGGAAGAGCACACGU
B25: target 1 A1U,U19C (mixed)
RNA 1: CACCCGUGCAAAAAUGCAGGGGUCUAAAACUGAGCGGAUAACCUCUCUAUGG
RNA 2: GGGAAUGGAUCCACAUCUACGAAUUCGUACCACAGAGAGGUUAUCCGCUCUCCGAGAUCGGAAGAGCACACGU
B26: target 1 insA 3' of 2,insG 3' of 1 (mixed)
RNA 1: CACCCGUGCAAAAAUGCAGGGGUCUAAAACUGAGCGGAUAACCUCUCUAUGG
RNA 2: GGGAAUGGAUCCACAUCUACGAAUUCGUACCAUAGAGAGGUUAUCCGCUCAAGCCGAGAUCGGAAGAGCACACGU
B27: target 1 C7G,C22G (mixed)
RNA 1: CACCCGUGCAAAAAUGCAGGGGUCUAAAACUGAGCGGAUAACCUCUCUAUGG
RNA 2: GGGAAUGGAUCCACAUCUACGAAUUCGUAGCAUAGAGAGGUUAUGCGCUCACCGAGAUCGGAAGAGCACACGU
B28: target 1 insG 3' of 14,insG 3' of 7 (mixed)
RNA 1: CACCCGUGCAAAAAUGCAGGGGUCUAAAACUGAGCGGAUAACCUCUCUAUGG
RNA 2: GGGAAUGGAUCCACAUCUACGAAUUCGUACCAUAGAGAGGGUUAUCGCGCUCACCGAGAUCGGAAGAGCACACGU

The binders below were run against T1, EsCas13d, nuclease-dead (Eubacterium siraeum, UniProt B0MS50, R295A;H300A;R849A;H854A) (assay: crRNA (strand 1, pre-loaded); Mg2+; 40 mM Tris-HCl pH 7.5, 150 mM NaCl, 6 mM MgCl2, 1 mM DTT, 0.1% Tween-20, 0.2 mg/ml BSA; 25 C; 10 min per concentration, then washed). Conditions: tags: His6-TwinStrep-SUMO cleaved; N-terminal SNAP kept (SNAP-Surface 488); label: 3' end held by stalled T7 RNA polymerase.
T1 sequence: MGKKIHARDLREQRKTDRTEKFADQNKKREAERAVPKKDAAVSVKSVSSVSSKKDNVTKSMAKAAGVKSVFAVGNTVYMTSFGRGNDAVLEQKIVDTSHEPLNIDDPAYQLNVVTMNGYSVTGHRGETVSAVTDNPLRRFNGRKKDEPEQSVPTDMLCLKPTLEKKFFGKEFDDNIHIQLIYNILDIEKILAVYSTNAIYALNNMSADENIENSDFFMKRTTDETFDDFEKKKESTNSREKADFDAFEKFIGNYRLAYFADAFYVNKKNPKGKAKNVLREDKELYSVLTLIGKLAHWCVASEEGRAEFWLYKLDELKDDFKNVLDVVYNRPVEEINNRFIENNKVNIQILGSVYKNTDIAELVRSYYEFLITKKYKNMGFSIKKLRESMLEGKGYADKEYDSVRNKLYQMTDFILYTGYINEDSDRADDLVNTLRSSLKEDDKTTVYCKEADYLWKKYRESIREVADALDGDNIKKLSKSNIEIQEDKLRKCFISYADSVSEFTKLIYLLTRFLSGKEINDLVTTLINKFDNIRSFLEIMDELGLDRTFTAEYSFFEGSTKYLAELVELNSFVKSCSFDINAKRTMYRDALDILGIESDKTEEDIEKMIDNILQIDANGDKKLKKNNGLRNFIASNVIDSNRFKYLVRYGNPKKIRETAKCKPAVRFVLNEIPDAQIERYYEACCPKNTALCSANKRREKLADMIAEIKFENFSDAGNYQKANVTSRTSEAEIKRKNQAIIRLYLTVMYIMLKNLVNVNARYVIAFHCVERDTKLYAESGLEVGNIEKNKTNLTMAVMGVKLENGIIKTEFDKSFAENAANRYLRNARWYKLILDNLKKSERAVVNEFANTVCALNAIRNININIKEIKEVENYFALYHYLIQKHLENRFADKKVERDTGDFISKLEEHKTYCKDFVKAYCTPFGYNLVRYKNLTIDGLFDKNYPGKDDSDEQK

B1 and B2 are within 1.5-fold of each other in Kd: 6.9 ± 0.6 nM for the first, 8.3 ± 0.4 nM for the second.

First: B3
Second: B4
The Kd of the first is 2.8-fold lower: 14.5 ± 0.7 nM for the first, 41 ± 6 nM for the second.

Going from B5 to B6, the Kd rises from 6.44 ± 0.26 nM to 44 ± 8 nM (6.8-fold).

B7 and B8 are within 1.5-fold of each other in Kd: 16.2 ± 1.1 nM for the first, 13.7 ± 0.7 nM for the second.

B9 and B10 are within error of each other in Kd: 26.6 ± 2.7 nM for the first, 40 ± 17 nM for the second.

Going from B11 to B12, the Kd falls from 26.8 ± 1.8 nM to 12.2 ± 1.4 nM (2.2-fold).

B13 and B14 are within error of each other in Kd: 65 ± 15 nM for the first, 54 ± 6 nM for the second.

Compared with B15, B16 is 10-fold lower in Kd: 68 ± 11 nM for the first, 6.68 ± 0.19 nM for the second. The second binds more tightly here.

First: B17
Second: B18
The Kd of the first is 2.7-fold lower: 8.8 ± 0.5 nM for the first, 23.5 ± 1.4 nM for the second. The first binds more tightly here.

Compared with B19, B20 is 3-fold lower in Kd: 43 ± 15 nM for the first, 14.4 ± 1.9 nM for the second.

B21 and B22 are within error of each other in Kd: 28 ± 4 nM for the first, 32.9 ± 2.5 nM for the second.

B23 and B24 are within 1.5-fold of each other in Kd: 8.5 ± 0.6 nM for the first, 9.6 ± 0.4 nM for the second.

Going from B25 to B26, the Kd falls from 22.2 ± 1.6 nM to 8.6 ± 0.6 nM (2.6-fold). The second binds more tightly here.

Compared with B27, B28 is 5.6-fold lower in Kd: 38 ± 6 nM for the first, 6.8 ± 0.28 nM for the second. The second binds more tightly here.
